Measured values taken from article PMC9913075.

Molecular target: Taspase1, endogenous in HeLa cells (human (endogenous in HeLa)) (UniProt Q9H6P5)
Test: proximity ligation; Duolink PLA on fixed HeLa cells with rabbit anti-Topoisomerase IIα/β and mouse anti-Taspase1; foci per nucleus counted

Sequence of UniProt Q9H6P5 (Q9H6P5 whole entry): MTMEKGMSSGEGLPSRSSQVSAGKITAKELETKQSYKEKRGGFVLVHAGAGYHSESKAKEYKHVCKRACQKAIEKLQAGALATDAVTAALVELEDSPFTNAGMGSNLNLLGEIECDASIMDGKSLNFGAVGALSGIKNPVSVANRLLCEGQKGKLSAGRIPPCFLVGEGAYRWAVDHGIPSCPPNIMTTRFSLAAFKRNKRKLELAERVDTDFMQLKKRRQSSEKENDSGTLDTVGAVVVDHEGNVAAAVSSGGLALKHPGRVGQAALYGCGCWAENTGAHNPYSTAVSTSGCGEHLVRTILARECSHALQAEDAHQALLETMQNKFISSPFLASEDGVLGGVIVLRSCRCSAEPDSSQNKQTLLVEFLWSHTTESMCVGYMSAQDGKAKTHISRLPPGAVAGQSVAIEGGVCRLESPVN

**Q.** “Topo IIα/β (endogenous, HeLa cells, detected with an antibody that recognises both isoforms)” was tested. Which PLA foci per nucleus (median) (foci per nucleus) did it give?
**A.** Its PLA foci per nucleus (median) (foci per nucleus) is 45.
